Assay results published in patent US20180155451A1 (published 2018).

T1: FcγRIIb (extracellular domain, C-terminal His tag) (human, UniProt P31994 43-217)
T1 construct: extracellular domain; also called FcgRIIb; 2b; not shown: His tag attached to the C terminus
T1 sequence (looked up): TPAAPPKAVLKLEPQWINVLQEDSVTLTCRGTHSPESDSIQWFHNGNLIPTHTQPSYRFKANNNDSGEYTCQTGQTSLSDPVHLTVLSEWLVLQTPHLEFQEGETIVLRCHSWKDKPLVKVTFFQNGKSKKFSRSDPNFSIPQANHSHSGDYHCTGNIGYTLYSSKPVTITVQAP

T2: FcγRIIa R (extracellular domain, C-terminal His tag) (human, UniProt P12318 34-217)
T2 construct: extracellular domain; also called FcgRIIa R type; 2aR; not shown: His tag attached to the C terminus
T2 sequence (looked up): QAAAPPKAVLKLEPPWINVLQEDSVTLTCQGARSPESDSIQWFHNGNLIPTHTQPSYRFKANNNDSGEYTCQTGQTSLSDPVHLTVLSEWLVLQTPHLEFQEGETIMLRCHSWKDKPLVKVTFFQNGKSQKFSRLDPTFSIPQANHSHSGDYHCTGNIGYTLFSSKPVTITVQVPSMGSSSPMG

T3: FcγRIIb, extracellular domain with C-terminal His tag (human, UniProt P31994 43-217)
T3 construct: extracellular domain; also called 2b; FcgRIIb; not shown: His tag at the C terminus
T3 sequence (looked up): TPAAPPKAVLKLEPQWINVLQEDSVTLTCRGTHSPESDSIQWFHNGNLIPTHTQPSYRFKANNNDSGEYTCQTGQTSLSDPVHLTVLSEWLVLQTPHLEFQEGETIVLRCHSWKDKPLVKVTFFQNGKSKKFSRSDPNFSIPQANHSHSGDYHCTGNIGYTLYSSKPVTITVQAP

T4: FcγRIIa H (FcγRIIa type H, His at position 131), extracellular domain with C-terminal His tag (human, UniProt P12318 34-217)
T4 construct: extracellular domain; also called 2aH; FcgRIIa H; not shown: His tag at the C terminus
T4 sequence (looked up): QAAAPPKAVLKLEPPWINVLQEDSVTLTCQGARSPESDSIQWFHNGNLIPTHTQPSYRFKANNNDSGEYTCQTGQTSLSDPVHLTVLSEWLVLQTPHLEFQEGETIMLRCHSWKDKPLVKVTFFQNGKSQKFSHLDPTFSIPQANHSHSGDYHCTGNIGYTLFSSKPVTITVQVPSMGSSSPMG


Tests used:
[1] = target: T1, FcγRIIb (extracellular domain, …); test: SPR (Biacore), antibody captured on antigen-peptide chip, FcγR as analyte; relative binding amount
Method: (§1) The heterodimerized antibodies He Abs in which one of the H chains was introduced with an alteration were assayed for their binding activities to each activating FcγR and inhibitory FcγR according to the method described in Example 4. […] The activating FcγRs in FIGS. 26, 27, 28, and 29 are FcγRIa, FcγRIIa (R), FcγRIIa (H), and FcγRIIIa, respectively.
(§2) Analysis of interaction between objective antibody and the FcγR was carried out using Biacore T100 (GE Healthcare). HBS-EP+ (GE Healthcare) was used as the running buffer, and the measurement temperature was set to 25° C. Chips produced by immobilizing the antigen peptide by the amine coupling method to a Series S Sencor Chip CM5 (GE Healthcare), or alternatively, chips produced by allowing preliminarily biotinylated antigen peptides to interact with and immobilize onto a Series S Sensor Chip SA (certified) (GE Healthcare) were used. Antibodies of interest were captured onto an antigen peptide-immobilized chip, and allowed to interact to each FcγR diluted with running buffer. To regenerate and repeatedly use the chip, the antibodies captured on the chip were washed off by reacting 10 mM glycine-HCl, pH 1.5.

[2] = target: T2, FcγRIIa R (extracellular domain, …); test: as above
Method: as §1, §2

[3] = target: T3, FcγRIIb, extracellular domain with …; test: SPR (Biacore), antibody captured on antigen-peptide chip, FcγR as analyte; GpH7-A5/GpH7-B3/GpL16-k0 = 100
Method: as §1, §2

[4] = target: T4, FcγRIIa H (FcγRIIa type H, His at …); test: as above
Method: as §1, §2

He/Con_2b [1] | He/Con_2aR [2] | He/Con_2b (relative binding activity) [3] | He/Con_2aH (relative binding activity) [4] | Binder
99.9 % of control (GpH7-A5/GpH7-B3/GpL16-k0 = 100) | 104 % of control (GpH7-A5/GpH7-B3/GpL16-k0 = 100) | – | – | GpH7-A5/GpH7-B3 variant T335_05P/GpL16-k0 (antibody, human IgG1, kappa, Heterodimerized anti-glypican-3 IgG1; alteration in only one H chain (GpH7-B3 side); also called He Ab) heavy 1: not shown heavy 2: not shown light: DIVMTQSPLSLPVTPGEPASISCQASESLVHSNRNTYLHWYLQKPGQSPQLLIYKVSNRFSGVPDRFSGSGSGTDFTLKISRVEAEDVGVYYCSQNTHVPPTFGQGTKVEIERTVAAPSVFIFPPSDEQLKSGTASVVCLLNNFYPREAKVQWKVDNALQSGNSQESVTEQDSKDSTYSLSSTLTLSKADYEKHKVYACEVTHQGLSSPVTKSFNRGEC
99.4 % of control (GpH7-A5/GpH7-B3/GpL16-k0 = 100) | 105 % of control (GpH7-A5/GpH7-B3/GpL16-k0 = 100) | – | – | GpH7-A5/GpH7-B3 variant T335_06M/GpL16-k0 (antibody, human IgG1, kappa, Heterodimerized anti-glypican-3 IgG1; alteration in only one H chain (GpH7-B3 side); also called He Ab) heavy 1: not shown heavy 2: not shown light: DIVMTQSPLSLPVTPGEPASISCQASESLVHSNRNTYLHWYLQKPGQSPQLLIYKVSNRFSGVPDRFSGSGSGTDFTLKISRVEAEDVGVYYCSQNTHVPPTFGQGTKVEIERTVAAPSVFIFPPSDEQLKSGTASVVCLLNNFYPREAKVQWKVDNALQSGNSQESVTEQDSKDSTYSLSSTLTLSKADYEKHKVYACEVTHQGLSSPVTKSFNRGEC
– | – | 114 % of control | 99.2 % of control | GpH7-A5/GpH7-B3 variant H268_03V/GpL16-k0 (antibody, human IgG1, kappa, Heterodimerized IgG1 (He Ab); mutation only in the GpH7-B3 chain; also called He Ab H268V) heavy 1: not shown heavy 2: not shown light: DIVMTQSPLSLPVTPGEPASISCQASESLVHSNRNTYLHWYLQKPGQSPQLLIYKVSNRFSGVPDRFSGSGSGTDFTLKISRVEAEDVGVYYCSQNTHVPPTFGQGTKVEIERTVAAPSVFIFPPSDEQLKSGTASVVCLLNNFYPREAKVQWKVDNALQSGNSQESVTEQDSKDSTYSLSSTLTLSKADYEKHKVYACEVTHQGLSSPVTKSFNRGEC
– | – | 144 % of control | 99.2 % of control | GpH7-A5/GpH7-B3 variant H268_01G/GpL16-k0 (antibody, human IgG1, kappa, Heterodimerized IgG1 (He Ab); mutation only in the GpH7-B3 chain; also called He Ab H268G) heavy 1: not shown heavy 2: not shown light: DIVMTQSPLSLPVTPGEPASISCQASESLVHSNRNTYLHWYLQKPGQSPQLLIYKVSNRFSGVPDRFSGSGSGTDFTLKISRVEAEDVGVYYCSQNTHVPPTFGQGTKVEIERTVAAPSVFIFPPSDEQLKSGTASVVCLLNNFYPREAKVQWKVDNALQSGNSQESVTEQDSKDSTYSLSSTLTLSKADYEKHKVYACEVTHQGLSSPVTKSFNRGEC
– | – | 116 % of control | 81.8 % of control | GpH7-A5/GpH7-B3 variant H268_05P/GpL16-k0 (antibody, human IgG1, kappa, Heterodimerized IgG1 (He Ab); mutation only in the GpH7-B3 chain; also called He Ab H268P) heavy 1: not shown heavy 2: not shown light: DIVMTQSPLSLPVTPGEPASISCQASESLVHSNRNTYLHWYLQKPGQSPQLLIYKVSNRFSGVPDRFSGSGSGTDFTLKISRVEAEDVGVYYCSQNTHVPPTFGQGTKVEIERTVAAPSVFIFPPSDEQLKSGTASVVCLLNNFYPREAKVQWKVDNALQSGNSQESVTEQDSKDSTYSLSSTLTLSKADYEKHKVYACEVTHQGLSSPVTKSFNRGEC
– | – | 218 % of control | 61.3 % of control | GpH7-A5/GpH7-B3 variant S267_19Q/GpL16-k0 (antibody, human IgG1, kappa, Heterodimerized IgG1 (He Ab); mutation only in the GpH7-B3 chain; also called He Ab S267Q) heavy 1: not shown heavy 2: not shown light: DIVMTQSPLSLPVTPGEPASISCQASESLVHSNRNTYLHWYLQKPGQSPQLLIYKVSNRFSGVPDRFSGSGSGTDFTLKISRVEAEDVGVYYCSQNTHVPPTFGQGTKVEIERTVAAPSVFIFPPSDEQLKSGTASVVCLLNNFYPREAKVQWKVDNALQSGNSQESVTEQDSKDSTYSLSSTLTLSKADYEKHKVYACEVTHQGLSSPVTKSFNRGEC
– | – | 177 % of control | 92.7 % of control | GpH7-A5/GpH7-B3 variant K326_08L/GpL16-k0 (antibody, human IgG1, kappa, Heterodimerized IgG1 (He Ab); mutation only in the GpH7-B3 chain; also called He Ab K326L) heavy 1: not shown heavy 2: not shown light: DIVMTQSPLSLPVTPGEPASISCQASESLVHSNRNTYLHWYLQKPGQSPQLLIYKVSNRFSGVPDRFSGSGSGTDFTLKISRVEAEDVGVYYCSQNTHVPPTFGQGTKVEIERTVAAPSVFIFPPSDEQLKSGTASVVCLLNNFYPREAKVQWKVDNALQSGNSQESVTEQDSKDSTYSLSSTLTLSKADYEKHKVYACEVTHQGLSSPVTKSFNRGEC
